Laboratory results published in US20090143319.

Experiments:
NF-kB p65 (RelA) = NF-kB p65 (RelA) (UniProt Q04206); assay: competition; settings: unit not given
NF-kB = assay: cell_activity; settings: NF-kB SEAP reporter, 0.1 uM

Chain of NF-kB p65 (RelA) (Q04206 whole entry): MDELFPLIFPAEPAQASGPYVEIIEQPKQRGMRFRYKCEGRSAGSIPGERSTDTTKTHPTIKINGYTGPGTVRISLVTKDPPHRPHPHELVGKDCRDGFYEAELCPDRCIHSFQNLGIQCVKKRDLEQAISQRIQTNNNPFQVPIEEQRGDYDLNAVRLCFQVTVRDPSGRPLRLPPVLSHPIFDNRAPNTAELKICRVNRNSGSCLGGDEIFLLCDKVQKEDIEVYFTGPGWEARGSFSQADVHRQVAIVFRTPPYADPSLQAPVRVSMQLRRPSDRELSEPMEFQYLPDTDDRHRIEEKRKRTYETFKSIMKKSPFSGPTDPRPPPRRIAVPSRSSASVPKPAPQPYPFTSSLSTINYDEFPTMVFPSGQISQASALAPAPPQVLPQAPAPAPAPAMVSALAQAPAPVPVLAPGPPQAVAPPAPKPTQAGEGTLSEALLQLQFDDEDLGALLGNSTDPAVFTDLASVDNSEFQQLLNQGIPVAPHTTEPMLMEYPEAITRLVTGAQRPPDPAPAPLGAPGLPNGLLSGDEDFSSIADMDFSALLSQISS

ACCAGGGGATTTCCCCGTCCCAC (double strand) [SEQ-G]
IC50 (NF-kB p65 (RelA)): 1.71

AGCTGGGGATTTCCCCTTTG (double strand) [SEQ-F]
IC50 (NF-kB p65 (RelA)): 3.4

AGTATCGGGGATTTCCCCTTAAC (double strand) [SEQ-E]
IC50 (NF-kB p65 (RelA)): 1.91

AGTTGAGGGGATTTCCCCAGGC (double strand) [SEQ-A]
IC50 (NF-kB p65 (RelA); ELISA competition with immobilized NF-kB site, room temperature): 1.51

AGTTGAGGGGATTTCCCCGC (double strand) [SEQ-H]
IC50 (NF-kB p65 (RelA)): 1.08

CCTTGAAGGGATTTCCCTCC (double strand) [SEQ-1]
IC50 (NF-kB p65 (RelA); PS (*): C*C*TTGAAGG*G*A*TTTCCCT*C*C / G*G*AGGGAAA*T*C*CCTTCAA*G*G): 0.84

CCTTGAAGGGATTTCCCTCC (double strand) [SEQ-x (full PS)]
IC50 (NF-kB p65 (RelA); PS at all positions, both strands, 2.60 in Table 3): 3.97

CCTTGAGGGGATTTCCCCCC (double strand) [SEQ-9]
activity (NF-kB; PS (*): C*C*TTG*A*GGGGATTT*C*CCCCC / antisense 5'-G*G*GGGGAAA*T*C*CCCTCAAGG): 70 % inhibition

CCTTGAGGGGATTTCCCCCC (double strand) [SEQ-I-PS]
IC50 (NF-kB p65 (RelA); PS at 2 bonds at each end of both strands): 1.06

CCTTGAGGGGATTTCCCCCC (double strand) [SEQ-I]
IC50 (NF-kB p65 (RelA)): 0.384

GAGGGGATTTCCCC (double strand) [SEQ-33]
activity (NF-kB; PS (*): G*A*GGGGATTT*C*CCC / antisense 5'-GGGGAAA*T*C*CCCTC): 70 % inhibition

GAGGGGATTTCCCC (double strand) [SEQ-34]
activity (NF-kB; PS (*): G*A*GGGGATTT*C*CCC / antisense 5'-G*GGGAAA*T*C*CCCTC): 99 % inhibition

GAGGGGATTTCCCC (double strand) [SEQ-35]
activity (NF-kB; PS (*): G*A*GGGGATTT*C*CCC / antisense 3'-CTCCC*C*T*AAAG*G*GGG (so in the source)): 70 % inhibition

TTGAGGGGATTTCCCC (double strand) [SEQ-36]
activity (NF-kB; PS (*): T*TG*A*GGGGATTT*C*CCC / antisense 5'-G*GGGAAA*T*C*CCCTCAA): 80 % inhibition

TTGAGGGGATTTCCCC (double strand) [SEQ-37]
activity (NF-kB; PS (*): T*T*G*A*GGGGATTT*C*CCC / antisense 5'-G*G*GGAAA*T*C*CCCTCAA): 75 % inhibition

TTGAGGGGATTTCCCC (double strand) [SEQ-38]
activity (NF-kB; PS (*): TTG*A*GGGGATTT*C*CCC / antisense 5'-GGGGAAA*T*C*CCCTCAA): 90 % inhibition
